Laboratory results reported in patent US20230056252A1 (Gilead, published 2023).
Where a chain is given by its changes, count along the chain named. Where two headings read alike, the source gives them in different places.

Legend:
[1] = target: T1, CD3 expressed on cell-surface of primary human T cells (human, UniProt P07766 23-207; P04234 22-171); assay: flow cytometry competition vs murine SP34-AF488 on human T cells, n = 1
T1 construct: also called cell-surface CD3; human CD3

[2] = target: T1, CD3 expressed on cell-surface of …; assay: flow cytometry competition vs murine SP34-AF488 on human T cells, n = 2
[3] = target: T1, CD3 expressed on cell-surface of …; assay: flow cytometry competition vs murine SP34-AF488 on human T cells, average
[4] = target: T1, CD3 expressed on cell-surface of …; assay: flow cytometry competition vs murine SP34-AF488 on human T cells, n = 1; remark: listed apart in the source
[5] = target: T1, CD3 expressed on cell-surface of …; assay: flow cytometry competition vs murine SP34-AF488 on human T cells, n = 2; remark: listed apart in the source
[6] = target: T2, biotinylated CD3 epsilon:delta heterodimer protein (Amsbio AMS.CDD-H52WO) (Homo sapiens (Human), UniProt P07766 23-126; P04234 22-105); assay: BLI (Octet), CD3 on SA sensor, bispecific analyte
T2 construct: also called CD3 heterodimer

[7] = target: T3, biotinylated Human CD3E and CD3D (Acro Biosystems Cat CDD-H82W1) (human, UniProt P07766 23-126; P04234 22-105); assay: SPR (Biacore 4000), CD3 captured on streptavidin chip;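 note: bispecific antibodies or Fabs injected at several concentrations over CD3 surfaces of varying density, sensorgrams fitted with a simple kinetic model to obtain association, dissociation and equilibrium constants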
T3 construct: also called biotinylated CD3

[8] = target: T2, biotinylated CD3 epsilon:delta …; assay: BLI (Octet), CD3 on SA sensor, bispecific analyte; remark: listed apart in the source

B1: huSP34.2.4 Fab-HF (Fab, V domains shown)
VH: EVQLVESGGGLVQPGGSLRLSCAASGFTFSTYAMNWVRQAPGKGLEWVGRIRSKYNNYATYYAASVKGRFTISRDDSKNSLYLQMNSLKTEDTAMYYCVRHGNFGNSYVSWFAVWGQGTLVTVSS
VL: QAVVTQEPSLTVSPGGTVTLTCGSSTGAVTTSHYANWVQQKPGQAPRGLIGGTSKRAPWTPARFSGSLLGGKAALTLSGAQPEDEAEYYCALWYSALWVFGGGTKLTVL
[1]
  IC50: > 20 mg/L
[2]
  IC50: > 20 mg/L

B2: huSP34.5.6 Fab-HF (Fab, V domains shown)
VH: B1 VH with A64D, D76N, S80T, K89R, T90A, M95V, N106H
VL: B1 VL with E7P, S32G, K55N, W59G, T60V, L69S, L77I, L97R
[1]
  IC50: > 20 mg/L
[2]
  IC50: > 20 mg/L

B3: huSP34.3.9 Fab-HF (Fab, V domains shown)
VH: B1 VH with S30N, A64D, K89R, M95V, N106H, V114Y
VL: B1 VL with E7P, S32G, S54N, W59G, T60V, L69S, L77I, A96N
[3]
  IC50: 0.28 mg/L
[4]
  IC50: 0.39 mg/L
[5]
  IC50: 0.17 mg/L

B4: huSP34.5.2 Fab-HF (Fab, V domains shown)
VH: B1 VH with A64D, D76N, S80T, K89R, T90A, M95V, N106H
VL: B1 VL with H33N, K55N, A96N
[1]
  IC50: > 20 mg/L
[2]
  IC50: > 20 mg/L

B5: huSP34.2.5 Fab-HF (Fab, V domains shown)
VH: B1 VH
VL: B1 VL with S32G, K55N, L97R
[1]
  IC50: > 20 mg/L
[2]
  IC50: > 20 mg/L

B6: huSP34.3.8 Fab-HF (Fab, V domains shown)
VH: B1 VH with S30N, A64D, K89R, M95V, N106H, V114Y
VL: B1 VL with S32G, S54N, W59G, T60V, L77I, A96N, L97R
[3]
  IC50: 0.15 mg/L
[4]
  IC50: 0.2 mg/L
[5]
  IC50: 0.1 mg/L

B7: huSP34.3.10 Fab-HF (Fab, V domains shown)
VH: B1 VH with S30N, A64D, K89R, M95V, N106H, V114Y
VL: B1 VL with E7P, S32G, S54N, W59G, T60V, L69S, L77I, A96N, L97R
[3]
  IC50: 0.15 mg/L
[4]
  IC50: 0.2 mg/L
[5]
  IC50: 0.09 mg/L

B8: huSP34.3.7 Fab-HF (Fab, V domains shown)
VH: B1 VH with S30N, A64D, K89R, M95V, N106H, V114Y
VL: B1 VL with G23R, S32G, S54N, W59G, T60V, L77I, A96N
[3]
  IC50: 0.23 mg/L
[4]
  IC50: 0.3 mg/L
[5]
  IC50: 0.15 mg/L

B9: huSP34.5.5 Fab-HF (Fab, V domains shown)
VH: B1 VH with A64D, D76N, S80T, K89R, T90A, M95V, N106H
VL: B1 VL with S32G, K55N, L97R
[1]
  IC50: > 20 mg/L
[2]
  IC50: > 20 mg/L

B10: huSP34.4.4 Fab-HF (Fab, V domains shown)
VH: B1 VH with K89R, M95V, N106H
VL: B1 VL
[1]
  IC50: > 20 mg/L
[2]
  IC50: > 20 mg/L

B11: huSP34.5.4 Fab-HF (Fab, V domains shown)
VH: B1 VH with A64D, D76N, S80T, K89R, T90A, M95V, N106H
VL: B1 VL
[1]
  IC50: > 20 mg/L
[2]
  IC50: > 20 mg/L

B12: huSP34.5.1 Fab-HF (Fab, V domains shown)
VH: B1 VH with A64D, D76N, S80T, K89R, T90A, M95V, N106H
VL: B1 VL with G23R, H33N, S54N, L69I, G71D, A96N
[1]
  IC50: > 20 mg/L
[2]
  IC50: > 20 mg/L

B13: huSP34.11.7 Fab-HF (Fab, V domains shown)
VH: B1 VH with K89R, M95V, N106H, V114Y
VL: B1 VL with G23R, S32G, S54N, W59G, T60V, L77I, A96N
[3]
  IC50: 0.32 mg/L
[4]
  IC50: 0.45 mg/L
[5]
  IC50: 0.18 mg/L

B14: huSP34.4.5 Fab-HF (Fab, V domains shown)
VH: B1 VH with K89R, M95V, N106H
VL: B1 VL with S32G, K55N, L97R
[1]
  IC50: > 20 mg/L
[2]
  IC50: > 20 mg/L

B15: hPGT121.66 AAS + W/huSP34.34.12 scFv AAS + SAV + R (bispecific antibody, human IgG1, lambda, L234A L235A)
chain: EVQLVESGGGLVQPGGSLRLSCAASGFTFNTYAMNWVRQAPGKGLEWVGRIRSKYNNYATYYAASVKGRFTISRDDSKNSLYLQMNSLKTEDTAMYYCVRHGNFGHSYVSWFAYWGQGTLVTVSSGGGGSGGGGSGGGGSGGGGSQAVVTQPPSLTVSPGGTVTLTCGSSTGAVTTGHYANWVQQKPGQAPRGLIGGTNKRAPWTPARFSGSLSGGKAALTISGAQPEDEAEYYCALWYSNRWVFGGGTKLTVLEPKSSDKTHTCPPCPAPEAAGGPSVFLFPPKPKDTLMISRTPEVTCVVVDVSHEDPEVKFNWYVDGVEVHNAKTKPREEQYNSTYRVVSVLTVLHQDWLNGKEYKCKVSNKALPASIEKTISKAKGQPREPQVYTLPPSREEMTKNQVSLSCAVKGFYPSDIAVEWESNGQPENNYKTTPPVLDSDGSFFLVSKLTVDKSRWQQGNVFSCSVMHEALHNRYTQKSLSLSPGK
heavy: QMQLQESGPGLVKPSETLSLTCSVSGASISDSYWSWIRRSPGKGLEWIGYVHKSGDTNYNPSLKSRVHLSLDTSKNQVSLSLTGVTAADSGKYYCARTLHGRRIYGIVAFNEWFTYFYMDVWGTGTQVTVSSASTKGPSVFPLAPSSKSTSGGTAALGCLVKDYFPEPVTVSWNSGALTSGVHTFPAVLQSSGLYSLSSVVTVPSSSLGTQTYICNVNHKPSNTKVDKKVEPKSCDKTHTCPPCPAPEAAGGPSVFLFPPKPKDTLMISRTPEVTCVVVDVSHEDPEVKFNWYVDGVEVHNAKTKPREEQYNSTYRVVSVLTVLHQDWLNGKEYKCKVSNKALPASIEKTISKAKGQPREPQVYTLPPSREEMTKNQVSLWCLVKGFYPSDIAVEWESNGQPENNYKTTPPVLDSDGSFFLYSKLTVDKSRWQQGNVFSCSVMHEALHNHYTQKSLSLSPGK
light: not shown
[6]
  Kd: 0.0099 µM
  koff: 0.00431 s⁻¹
  kon: 433000 M⁻¹ s⁻¹
[7]
  Kd: 0.032 µM
  koff: 0.0119 s⁻¹
  kon: 370000 M⁻¹ s⁻¹

B16: hPGT121.66 AAS + W/huSP34.26.8scFv AAS + SAV + R (bispecific antibody, human IgG1, lambda, L234A L235A)
chain: B15 chain with R19S, N30S, T60A, S80T, K89R, M95V, P152E, W204G, T205V, S214L
heavy: B15 heavy
light: not shown
[8]
  Kd: 0.0093 µM
  koff: 0.000504 s⁻¹
  kon: 55900 M⁻¹ s⁻¹

B17: hPGT121.66 AAS + W/huSP34.14.8scFv AAS + SAV + R (bispecific antibody, human IgG1, lambda, L234A L235A)
chain: B15 chain with R19S, N30S, S80T, K89R, M95V, P152E, W204G, T205V, S214L
heavy: B15 heavy
light: not shown
[8]
  Kd: 0.0243 µM
  koff: 0.000932 s⁻¹
  kon: 39000 M⁻¹ s⁻¹

B18: hPGT121.66 AAS + W/huSP34.25.8scFv AAS + SAV + R (bispecific antibody, human IgG1, lambda, L234A L235A)
chain: B15 chain with N30S, T60A, G68S, S80T, K89R, M95V, P152E, W204G, T205V, S214L
heavy: B15 heavy
light: not shown
[8]
  Kd: 0.0106 µM
  koff: 0.000928 s⁻¹
  kon: 87600 M⁻¹ s⁻¹

B19: hPGT121.66 AAS + W/huSP34.34.10 scFv AAS + SAV + R (bispecific antibody, human IgG1, lambda, L234A L235A)
chain: B15 chain with W204G, T205V
heavy: B15 heavy
light: not shown
[6]
  Kd: 0.0084 µM
  koff: 0.00083 s⁻¹
  kon: 120000 M⁻¹ s⁻¹
[7]
  Kd: 0.0039 µM
  koff: 0.0102 s⁻¹
  kon: 2.6e+06 M⁻¹ s⁻¹

B20: hPGT121.66 AAS + W/huSP34.19.8scFv AAS + SAV + R (bispecific antibody, human IgG1, lambda, L234A L235A)
chain: B15 chain with N30S, S80T, Q84E, K89R, M95V, P152E, W204G, T205V, S214L
heavy: B15 heavy
light: not shown
[8]
  Kd: 0.0147 µM
  koff: 0.00104 s⁻¹
  kon: 72200 M⁻¹ s⁻¹

B21: hPGT121.66 AAS + W/huSP34.27.8 scFv AAS + SAV + R (bispecific antibody, human IgG1, lambda, L234A L235A)
chain: B15 chain with R19S, N30S, T60E, S80T, K89R, M95V, P152E, W204G, T205V, S214L
heavy: B15 heavy
light: not shown
notes: also called 270; bispecific 270
[8]
  Kd: 0.0132 µM
  koff: 0.001 s⁻¹
  kon: 76300 M⁻¹ s⁻¹

B22: hPGT121.66 AAS + W/huSP34.3.13 scFv AAS + SAV + R (bispecific antibody, human IgG1, lambda, L234A L235A)
chain: B15 chain with A64D, K89R, M95V, P152E, N199S, K200N, W204G, T205V, S214L
heavy: B15 heavy
light: not shown
[6]
  Kd: 0.0168 µM
  koff: 0.00171 s⁻¹
  kon: 106000 M⁻¹ s⁻¹
[7]
  Kd: 0.0024 µM
  koff: 0.0084 s⁻¹
  kon: 3.6e+06 M⁻¹ s⁻¹

B23: hPGT121.66 AAS + W/huSP34.33.8 scFv AAS + SAV + R (bispecific antibody, human IgG1, lambda, L234A L235A)
chain: B15 chain with N30S, G68S, S80T, Q84E, K89R, M95V, P152E, W204G, T205V, S214L
heavy: B15 heavy
light: not shown
[8]
  Kd: 0.0153 µM
  koff: 0.00118 s⁻¹
  kon: 77400 M⁻¹ s⁻¹

B24: hPGT121.66 AAS + W/huSP34.28.8 scFv AAS + SAV + R (bispecific antibody, human IgG1, lambda, L234A L235A)
chain: B15 chain with R19S, N30S, G68S, S80T, K89R, M95V, P152E, W204G, T205V, S214L
heavy: B15 heavy
light: not shown
notes: also called 271; bispecific 271
[8]
  Kd: 0.0158 µM
  koff: 0.00134 s⁻¹
  kon: 84600 M⁻¹ s⁻¹
